From article PMC7442819, “Taf14 recognizes a common motif in transcriptional machineries and facilitates their clustering by phase separation” (Nature Communications, 2020)

B1: Snf5_(771–800) [Saccharomyces cerevisiae] / Taf14ET (Taf14_(174–244)) [Saccharomyces cerevisiae] (parent)
chain 1: SPPCYIIDHIPGHSLLLSIKLPGKVNTKEE
chain 2: KGSVDLEKLAFGLTKLNEDDLVGVVQMVTDNKTPEMNVTNNVEEGEFIIDLYSLPEGLLKSLWDYVKKNTE
B2: Sth1EBM (Sth1_(1183–1240)) [Saccharomyces cerevisiae] / Taf14ET (Taf14_(174–244)) [Saccharomyces cerevisiae] (parent)
chain 1: EVKSSSVEIINGSESKKKKPKLTVKIKLNKTTVLENNDGKRAEEKPESKSPAKKTAAK
chain 2: B1 chain 2
B3: Ino80_(368–390) [Saccharomyces cerevisiae] / Taf14ET (Taf14_(174–244)) [Saccharomyces cerevisiae] (parent)
chain 1: DSKLNIKITLKQYHVKRLKKLIN
chain 2: B1 chain 2

Variants of: B1
Assay: ITC
Conditions: with Taf14ET (Taf14_(174–244)) [Saccharomyces cerevisiae]

Row | screen value [kcal/mol] | Variant
1 | 0.55 | chain 1 SPPCYIIDHIPGHSLLASIKLPGKVNTKEE [chain 1 L17A]
2 | 0.52 | chain 1 SPPCYIIDHIPGHSLLLSAKLPGKVNTKEE [chain 1 I19A]

Variants of: B2
Assay: ITC
Conditions: with Taf14ET (Taf14_(174–244)) [Saccharomyces cerevisiae]

Row | screen value [kcal/mol] | Variant
3 | 7.23 | chain 1 EVKSSSVEIINGSESKKKKPKATVKIKLNKTTVLENNDGKRAEEKPESKSPAKKTAAK [chain 1 L22A]
4 | 5.27 | chain 1 EVKSSSVEIINGSESKKKKPKLTVKIKANKTTVLENNDGKRAEEKPESKSPAKKTAAK [chain 1 L28A]
5 | 6.7 | chain 1 EVKSSSVEIINGSESKKKKPKLTAKIKLNKTTVLENNDGKRAEEKPESKSPAKKTAAK [chain 1 V24A]

Same assay, conditions: with Sth1EBM (Sth1_(1183–1240)) [Saccharomyces cerevisiae]

Row | screen value [kcal/mol] | Variant
6 | 8.16 | chain 2 KGSVDLEKLAFGLTKLNEDDLVGVVQMVTDNKTPEMNVTNNVEEGEAIIDLYSLPEGLLKSLWDYVKKNTE [chain 2 F47A]
7 | 5.99 | chain 2 KGSVDLEKLAFGLTKLNEDDLVGVVQMVTDNKTPEMNVTNNVEEGERIIDLYSLPEGLLKSLWDYVKKNTE [chain 2 F47R]
8 | 1.21 | chain 2 KGSVDLEKLAFGLTKLNEDDLVGVVQMVTDNKTPEMNVTNNVEEGEFIRDLYSLPEGLLKSLWDYVKKNTE [chain 2 I49R]

Variants of: B3
Assay: ITC
Conditions: with Taf14ET (Taf14_(174–244)) [Saccharomyces cerevisiae]

Row | screen value [kcal/mol] | Variant
9 | 3.42 | chain 1 DSKLNIKITAKQYHVKRLKKLIN [chain 1 L10A]
10 | 4.41 | chain 1 DSKLNAKITLKQYHVKRLKKLIN [chain 1 I6A]
